In publication PMC8281026, “Peptide Based Inhibitors of Protein Binding to the Mitogen-Activated Protein Kinase Docking Groove” (Frontiers in Molecular Biosciences, 2021):

Target: ERK2, P28482
Test: fluorescence polarisation; competitive: complex of the MAPK with 50 nM Cf-RHDF at 60-80% complex formation titrated with increasing unlabeled peptide; 20 mM Tris pH 8.0, 100 mM NaCl, 0.05% Brij35, 2 mM TCEP; 384-well black plates; triplicates; constants are called Kd in Table 1 and Ki in the …

Chain of ERK2, P28482 (P28482 whole entry): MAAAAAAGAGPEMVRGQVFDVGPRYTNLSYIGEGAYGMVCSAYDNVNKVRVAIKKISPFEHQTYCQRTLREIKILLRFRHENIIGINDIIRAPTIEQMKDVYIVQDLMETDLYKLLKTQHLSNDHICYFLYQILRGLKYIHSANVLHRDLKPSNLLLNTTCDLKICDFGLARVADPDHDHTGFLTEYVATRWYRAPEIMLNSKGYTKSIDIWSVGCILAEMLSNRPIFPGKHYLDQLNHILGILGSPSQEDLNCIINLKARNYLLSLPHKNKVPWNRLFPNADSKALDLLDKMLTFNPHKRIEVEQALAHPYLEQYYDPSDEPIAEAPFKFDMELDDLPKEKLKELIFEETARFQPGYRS

B1: octaarginine conjugate of the native RHDF1 sequence (peptide 2) (peptide)
chain 1: SLQRKKPPWLKLDIPSC
chain 2: RRRRRRRR
modifications: not checked
- Kd: 600 nM
